Biological target: T1, purified recombinant FLAG-Exp4 protein (human, UniProt Q9C0E2 1-1151)
T1 construct: human exportin 4, full-length cDNA assembled from three clones; also called recombinant Exp4; source: baculovirus system (pFASTBAC), purified recombinant
Assay: pull-down; GST-fused HMG box fragments incubated with purified recombinant FLAG-Exp4 and glutathione Sepharose 2 hr at 4°C; Western blot with anti-Exp4; no RanGTP
Conditions: both partners purified

T1 sequence (Q9C0E2 whole entry): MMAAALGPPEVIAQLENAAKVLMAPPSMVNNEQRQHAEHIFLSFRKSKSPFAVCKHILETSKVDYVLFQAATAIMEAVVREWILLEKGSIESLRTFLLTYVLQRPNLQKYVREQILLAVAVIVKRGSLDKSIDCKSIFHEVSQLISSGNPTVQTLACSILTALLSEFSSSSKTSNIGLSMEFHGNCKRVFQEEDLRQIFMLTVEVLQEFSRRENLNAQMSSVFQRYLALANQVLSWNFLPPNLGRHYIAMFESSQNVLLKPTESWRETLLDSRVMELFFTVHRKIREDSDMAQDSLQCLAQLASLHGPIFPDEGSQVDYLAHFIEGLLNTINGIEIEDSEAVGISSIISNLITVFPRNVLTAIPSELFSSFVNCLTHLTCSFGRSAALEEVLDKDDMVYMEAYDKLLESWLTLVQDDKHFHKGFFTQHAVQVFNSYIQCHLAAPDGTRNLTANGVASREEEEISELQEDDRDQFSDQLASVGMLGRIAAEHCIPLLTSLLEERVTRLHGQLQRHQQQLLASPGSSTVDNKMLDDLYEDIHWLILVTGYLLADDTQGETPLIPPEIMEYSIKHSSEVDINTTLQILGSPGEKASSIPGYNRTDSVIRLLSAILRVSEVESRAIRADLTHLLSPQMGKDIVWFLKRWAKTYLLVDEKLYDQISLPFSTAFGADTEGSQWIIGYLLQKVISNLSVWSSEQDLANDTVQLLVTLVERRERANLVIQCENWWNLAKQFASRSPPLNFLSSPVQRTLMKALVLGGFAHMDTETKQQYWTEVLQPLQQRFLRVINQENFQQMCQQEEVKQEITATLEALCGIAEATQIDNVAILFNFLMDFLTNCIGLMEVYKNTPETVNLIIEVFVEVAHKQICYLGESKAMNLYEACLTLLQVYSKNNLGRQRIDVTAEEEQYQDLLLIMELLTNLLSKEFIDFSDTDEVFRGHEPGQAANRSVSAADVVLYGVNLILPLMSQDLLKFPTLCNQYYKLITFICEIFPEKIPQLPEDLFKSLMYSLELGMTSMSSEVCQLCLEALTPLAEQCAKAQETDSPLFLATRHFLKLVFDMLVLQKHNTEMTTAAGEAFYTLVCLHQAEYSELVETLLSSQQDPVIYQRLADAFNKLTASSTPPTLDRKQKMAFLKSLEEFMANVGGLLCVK

| binding result | Binder |
| --- | --- |
| binds | GST-tagged HMG box fragment of Sox2 (33–123 a.a.) (domain or fragment, source: E. coli, prepared on glutathione-Sepharose) not shown |
| binds | GST-fused Sox9 region #2 (95–186 a.a.), HMG box domain (domain or fragment, mouse, UniProt Q04887 95-186, looked up, cloned in pGEX-6P-1; also called GST-tagged HMG box fragment of Sox9) VNGSSKNKPHVKRPMNAFMVWAQAARRKLADQYPHLHNAELSKTLGKLWRLLNESEKRPFVEEAERLRVQHKKDHPDYKYQPRRRKSVKNGQ |

Reference: article PMC3185033, “Exportin 4 Interacts with Sox9 through the HMG Box and Inhibits the DNA Binding of Sox9” (PLoS ONE, 2011)
